What was measured:
L1-CR1 (Her054P) = molecular target: T1, L1-CR1 (Her054P); experiment: ELISA, soluble scFv on L1-CR1
T1 construct: also called 1.0
T1 chain: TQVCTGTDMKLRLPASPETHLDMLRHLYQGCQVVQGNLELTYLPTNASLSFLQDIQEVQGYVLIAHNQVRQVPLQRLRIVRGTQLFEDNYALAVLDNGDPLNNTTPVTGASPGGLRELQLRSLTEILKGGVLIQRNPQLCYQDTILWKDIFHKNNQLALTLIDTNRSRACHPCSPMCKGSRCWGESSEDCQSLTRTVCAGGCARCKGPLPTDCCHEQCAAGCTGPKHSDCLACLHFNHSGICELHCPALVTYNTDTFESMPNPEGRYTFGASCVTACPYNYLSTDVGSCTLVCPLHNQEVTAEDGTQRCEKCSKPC

Full length HER2 = molecular target: T2, Full length HER2 (human, UniProt P04626 23-1255); experiment: cell ELISA, phage scFv, SKBR3 cells
T2 construct: Endogenous HER2 on SKBR3, BT474, 22rv1, MDA-MB-175, MDA-MB-453 and MDA-MB-361 cells; also called HER2 on the cell surface; ErbB2

EQR (Her017P) = molecular target: T3, EQR (Her017P); experiment: ELISA, soluble scFv on EQR
T3 construct: also called HER2 EQR-Fc; HER2 EQR DIMER

[1] = molecular target: T4, Her018P, Her2 ECD with a deletion in the CR2 (Domain IV) region expressed with a mIgG2a Fc tail (human; murine, UniProt P04626 23-599); experiment: ELISA, soluble scFv on Her018
T4 construct: Shares the name HER018 with the trastuzumab SMIP; also called 1.8 (Dimer); dimeric HER018; not shown: murine IgG2a Fc tail (C-terminal dimerising carrier) and any junction residues

B1: S1R2A_CS_1F7 (scFv, V domains shown)
VH: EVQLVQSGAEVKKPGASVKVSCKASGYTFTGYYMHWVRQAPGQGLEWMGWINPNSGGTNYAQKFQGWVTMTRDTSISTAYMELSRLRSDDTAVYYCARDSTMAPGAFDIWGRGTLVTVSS
VL: QSVLTQPPSVSVAPGQTARMTCGGNNIESKTVHWYQQKPGQAPVLVVYNDNVRPSGIPARFSGSNSGNTATLTINRVEAGDEADYYCQVWDSSRDQGVFGGGTKLTVL
notes: scFv, on phage in the screen
B1: no binding (L1-CR1 (Her054P)); binds (Full length HER2).

B2: S1R3B2_BMV_1H5 (scFv, V domains shown)
VH: EVQLVQSGGGLVRPGGSLRLSCAASGFSFSDYYMTWIRQIPGKGLEWVAVIWNDGSDRYYADSVKGRFTISRDNSKNTLFLQMSSLRDEDTALYYCVRGGPTASSGFDYWGRGTLVTVSS
VL: SSELTQPASVSGSPGQSITISCTGTSSDVGGYNYVSWYLQHPGKAPKLMIYEGSKRPSGVSNRFSGSKSGNTASLTISGLQAEDEADYYCSSYTTRSTRVFGGGTKLTVL
notes: scFv, on phage in the screen; also called Her2_S1R3B2_BMV_1H5
B2: no binding (L1-CR1 (Her054P)); binds (Full length HER2).

B3: S1R3B2_DP47_1E10 (scFv, V domains shown)
VH: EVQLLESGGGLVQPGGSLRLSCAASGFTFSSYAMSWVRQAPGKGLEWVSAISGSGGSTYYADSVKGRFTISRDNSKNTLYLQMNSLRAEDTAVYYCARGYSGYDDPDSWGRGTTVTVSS
VL: HVILTQPPSTSGTPGQTVTISCSGSSSNIGSHYVYWYQQLPGTAPKLLIYRNNQRPSGVPDRFSGSKSGTSASLAISGLRSEDETDYYCAAWDDSLSGRVFGTGTKLTVL
notes: scFv, on phage in the screen; also called Her2_S1R3B2_DP47_1E10
B3: no binding (L1-CR1 (Her054P)); no binding (EQR (Her017P)); no binding [1]. B3: binds (Full length HER2).

B4: S1R3C1_CS_1A6 (scFv, V domains shown)
VH: EVQLVQSGAEVKKPGESLKISCKGFGYNFRSAWIGWVRQMPGKGLEWMGVIYPGDSDVRYSPSFQGQVTISADKSISTAYLQWSSLKASDTAMYYCTRPVGQWVDSDYWGKGTLVTVSS
VL: QSVLTQPPSASGTPGQRVTISCSGSSSNIGTNTVNWYQQLPGTAPKLLIYTSNQRPSGVPARFSASNSGTSASLAISGLRSEDEADYYCAAWDDKLSGAVFGGGTKLTVL
notes: scFv, on phage in the screen; also called Her2_S1R3C1_CS_1A6
B4: no binding (L1-CR1 (Her054P)); binds (Full length HER2).

B5: S1R3B2_DP47_1E8 (scFv, V domains shown)
VH: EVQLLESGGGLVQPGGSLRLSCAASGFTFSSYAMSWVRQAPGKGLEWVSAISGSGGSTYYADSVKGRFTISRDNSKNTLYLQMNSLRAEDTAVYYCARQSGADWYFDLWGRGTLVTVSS
VL: QAVLTQPSAVSGAPGQRVTISCTGTSSNIGTNYLVHWYQQRPGTAPQLLVSGNNTRPSGVTDRFSVSKSATSASLAITGLQAEDEADYYCQTYDINLRVWVFGGGTKVTVL
notes: scFv, on phage in the screen; also called Her2_S1R3B2_DP47_1E8
B5: no binding (L1-CR1 (Her054P)); no binding [1]; binds (Full length HER2).

B6: S1R3B2_BMV_1E1 (scFv, V domains shown)
VH: EVQLVETGGGVVQPGGSLSLSCAASGFTFSSYGMQWVRQAPGKGLEWVAFIRYDGSSEYYADSVKGRFTISRDNSKNTLYLQMNSLRAEDTAVYYCGRTLESSLWGKGTLVTVSS
VL: QSVLTQPPSVSAAPGQKVTISCSGSTSNIGNNYVSWYQQHPGKAPKLMIYDVSKRPSGVPDRFSGSKSGNSASLDISGLQSEDEADYYCAAWDDSLSEFLFGTRTKLTVL
notes: scFv, on phage in the screen; also called Her2_S1R3B2_BMV_1E1
B6: no binding (L1-CR1 (Her054P)); no binding (EQR (Her017P)); no binding [1]. B6: binds (Full length HER2).

B7: S1R3B2_DP47_1C9 (scFv, V domains shown)
VH: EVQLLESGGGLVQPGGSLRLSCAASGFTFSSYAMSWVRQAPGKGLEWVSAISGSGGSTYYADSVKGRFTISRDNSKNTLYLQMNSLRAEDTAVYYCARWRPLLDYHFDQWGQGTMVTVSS
VL: QSVLTQPPSASGTPGQTVTISCSGSSSNIGSSVVNWYQQFPGTAPKVLVYSNTQRPSGVPDRFSGSRSGTSASLAISGLQSEDEADYYCLAWDASLNGWVFGGGTKLTVL
notes: scFv, on phage in the screen; also called Her2_S1R3B2_DP47_1C9
B7: no binding (L1-CR1 (Her054P)); no binding [1]; binds (Full length HER2).

B8: S1R2C_CS_1H12 (scFv, V domains shown)
VH: EVQLVETGGGLVQPGGSLRLSCAASGFTFSSYGMNWVRQAPGKGLEWVSYISSSGNTIFYADSVKGRFTISRDSAKNSVSLQMNSLRDEDTAVYYCASYYSYYYGMDAWGQGTMVTVSS
VL: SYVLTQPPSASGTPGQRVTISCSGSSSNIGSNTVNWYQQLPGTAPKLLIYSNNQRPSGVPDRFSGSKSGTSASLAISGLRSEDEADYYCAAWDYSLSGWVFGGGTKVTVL
notes: scFv, on phage in the screen
B8: no binding (L1-CR1 (Her054P)); no binding (EQR (Her017P)); no binding [1]. B8: binds (Full length HER2).

B9: S1R2A_CS_1D3 (scFv, V domains shown)
VH: EVQLVQSGAEVKKPGASVKVSCKASGYSFTAFYIHWVRQAPGQGLEYLGWIDPNTGATKYAQRFQGRVIMTWDTSITTATMELSRLTSDDSAVYYCVRDLREWGYELSVEYWGRGTLVTVSS
VL: not shown
notes: scFv, on phage in the screen
B9: no binding (L1-CR1 (Her054P)); no binding (EQR (Her017P)); no binding [1]. B9: binds (Full length HER2).

B10: S1R3C1_CS_1B10 (scFv, V domains shown)
VH: QVQLQQSGAEVKKPGSSVKVSCKASGGTISNYAISWVRLAPGQGLEWMGSIVPLHGTTNFAQKFQGRVTITADESTSTSYMEVNVLTYEDTAMYYCASLNWGYWGRGTLVTVSS
VL: NFMLTQPHSVSESPGKTVTISCTGSSGSIASNYVQWYQQRPDSAPTTVIYEDNRRSSGVPDRFSGSIDSSSNSASLSISGLKTEDEADYYCQSYDSSGHVVFGGGTKLTVL
notes: scFv, on phage in the screen; also called Her2_S1R3C1_CS_1B10
B10: no binding (L1-CR1 (Her054P)).

B11: S1R3A1_BMV_1G4 (scFv, V domains shown)
VH: QVQLVESGAEVKKPGASVKVSCKASGYTFTSYDINWVRQAPGQRLEWMGWINAGNGNTKYSQKFQGRVTITRDTSASTAYMELRSLRSDDTAVYYCARGRSYGHPYYFDYWGQGTLVTVSS
VL: QSVLTQPASVSGSPGQSITISCTGTSSDVGGYNYVSWYQQHPGKAPKLMIYEGSKRPSGVSNRFSGSKSGNTASLTISGLQAEDEADYYCSSYTTRSTRVFGGGTKLTVL
notes: scFv, soluble from bacterial periplasm in the screen; also called Her2_S1R3A1_BMV_1G4
B11: no binding (L1-CR1 (Her054P)); no binding (EQR (Her017P)); no binding [1].

B12: S1R3B1_BMV_1A10 (scFv, V domains shown)
VH: QMQLVQSGGGVVQPGRSLRLSCAASGFTFSSYGMHWVRQAPGKGLEWVAVISYDGSIKYYADSVKGRFTISRDNSKNTLYLQMNSLRAEDTGVYYCSKDRYSSGWYSSDAFDIWGRGTMVTVSS
VL: SSELTQDPAVSVALGQTVRITCQGDSLRSYYASWYQQKPGQAPVLVIYGKNNRPSGIPDRFSGSSSGNTASLTITGAQAEDEADYYCHSRDSSGNHVLFGGGTKLTVL
notes: scFv, soluble from bacterial periplasm in the screen; also called Her2_S1R3B1_BMV_1A10
B12: no binding (L1-CR1 (Her054P)); no binding (EQR (Her017P)); no binding [1].

B13: S1R3B1_BMV_1C12 (scFv, V domains shown)
VH: EVQLVQSGGGVVQPGRSLRLSCAASGFTFSSYGMHWVRQAPGKGLEWVAVISYDGSIKYYADSVKGRFTISRDNSKNTLYLQMNSLRAEDTAVYYCARTGEYSGYDTSGYSNWGQGTLVTVSS
VL: QSVLTQPPSASGTPGQRVTISCSGSSSNIGSNTVNWYQRLPGAAPQLLIYNNDQRPSGIPDRFSGSKSGTSGSLVISGLQSEDEADYYCASWDDSLNGRVFGGGTKLTVL
notes: scFv, soluble from bacterial periplasm in the screen; also called Her2_S1R3B1_BMV_1C12
B13: no binding (L1-CR1 (Her054P)).

B14: S1R3B1_DP47_1E1 (scFv, V domains shown)
VH: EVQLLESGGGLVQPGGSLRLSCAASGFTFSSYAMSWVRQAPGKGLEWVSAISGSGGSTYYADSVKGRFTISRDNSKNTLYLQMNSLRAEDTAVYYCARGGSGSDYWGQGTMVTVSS
VL: NFMLTQPHSVSGSPGKTVTISCTRSSGYIDSKYVQWYQQRPGSAPTTVIYEDNRRPSGVPDRFSGSIDSSSNSASLTISGLETEDEADYYCQSYDDTNVVFGGGTKVTVL
notes: scFv, soluble from bacterial periplasm in the screen; also called Her2_S1R3B1_DP47_1E1
B14: no binding (L1-CR1 (Her054P)); no binding (EQR (Her017P)); no binding [1].

B15: S1R3C1_BMV_1H11 (scFv, V domains shown)
VH: GVQLVESGGGLVKPGGSLRLSCAASGFTFSSYNMNWVRQAPGKGLEWVSAISGSGGSTYYADSVTGRFTISRDNSKNTLYLQMNSLRAEDTAVYYCAKDTSGWYGDGMDVWGRGTLVTVSS
VL: DIQMTQSPSTLSASIGDRVTITCRASEGIYHWLAWYQQKPGKAPKLLIYKASSLASGAPSRFSGSGSGTDFTLTISSLQPDDFATYYCQQYSNYPLTFGGGTKLEIK
notes: scFv, soluble from bacterial periplasm in the screen; also called Her2_S1R3C1_BMV_1H11
B15: no binding (L1-CR1 (Her054P)); no binding (EQR (Her017P)); no binding [1].

B16: S1R3C1_DP47_1H1 (scFv, V domains shown)
VH: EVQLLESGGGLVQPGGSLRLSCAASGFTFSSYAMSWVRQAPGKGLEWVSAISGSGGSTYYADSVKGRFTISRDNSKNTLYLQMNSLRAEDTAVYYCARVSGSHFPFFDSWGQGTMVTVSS
VL: QSVLTQPPSVSVAPGQTARITCGGDKIGHKSVHWYQQKPGQAPVLLVYDDRKRPSGIPERFSGSNSGNTATLTISRVEAGDEAAYHCQVWDRSSDPYVFGTGTKVTVL
notes: scFv, soluble from bacterial periplasm in the screen; also called Her2_S1R3C1_DP47_1H1
B16: no binding (L1-CR1 (Her054P)); no binding (EQR (Her017P)); no binding [1].
